Experimental data published in the nanobody polyreactivity screen of Harvey et al. (2022).

Test: yeast display, Sf9 membrane polyspecificity reagent, FACS + sequencing; frameworks hold sequencing errors
Procedure, shortened: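 In a synthetic yeast display library (Saccharomyces cerevisiae BJ5465), nanobody expression was induced with galactose for 36–48 hours. FACS gates were set low and high (top ~1%) using anti-HA fluorescence for expression and streptavidin fluorescence for binding of the Sf9 membrane reagent. Each polyreactivity label is drawn from the gate of origin.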

Sequence | polyreactivity (PSR sort gate)
QVQLVESGGGLVQAGGSLRLSCAASGFTFSYYAMGWYRQAPGKERELVARISFSGTRTYYADSVKGRFTISRDNAKNTVYLQMNSLKPEDTAVYYCAARFGYVGITARYDYWGQGTQVTVSS | high polyreactivity
QVQLVESGGGLVQAGGSLRLSCAASGFTFSYYAMGWYRQAPGKERELVASISRSGNTYYADSVKGRFTISRDNAKNTVYLQMNSLKPEDTAVYYCAAKRKSYYSYNFDYWGQGTQVTVSS | high polyreactivity
QVQLVESGGGLVQAGGSLRLSCAASGFTFTAYAMGLYRKATGKERELVAGISRRGASTYYADSVKGRFTISRDYAKNTVYLQMNSLKPEDTAVYYCAALGKYIVAWSGDYWGQGTQVTVSS | low polyreactivity
QVQLVESGGGLVQAGGSLRLSCAASGFTFTDYAMGWYRQAPGKERELVAAITKGGGRTYYADSVKGRFTISRDNAKNTVYLQMNSLKPEDTAVYYCNARYQVPYGYWGQGTQVTVSS | low polyreactivity
QVQLVESGGGLVQAGGSLRLSCAASGFTFTENVMGWYRQAPGKEREFVAAITYIGGRTYYADSVKGRFTISRDNAKNSVYLQMNSLKPEDTAVYYCAADWAYYVASYLYYTFDYWGQGTQVTVSS | low polyreactivity
QVQLVESGGGLVQAGGSLRLSCAASGFTFTENVMGWYRQAPGKEREFVAAITYIGGRTYYADSVKGRFTISRDNAKNTVYLQMNSLKPEDTAVYYCAADWAYYVASYLYYTFDYWGQGTQVTVSS | low polyreactivity
QVQLVESGGGLVQAGGSLRLSCAASGFTFTGYAMGWYRQAPGKERELVAAISSSGGSTYYADSVKGRFTISRDNAKNTVYLQMNSLKPEDTAVYYCNARISDAHYQCNYFLVLYDYWGQGTQVTVSS | low polyreactivity
QVQLVESGGGLVQAGGSLRLSCAASGFTFTIYAMGSNRPAPGKERELVATISGRAGRTYYADSVKGRFTISRDNAKNTVYLQMNSLKPEDPAVYYCTAGQRRYPGLSYYWGQGTQVTVSS | high polyreactivity
QVQLVESGGGLVQAGGSLRLSCAASGFTFTLNTMGWYRQAPGKERELVAAISSGGRTYYADSVKGRFTISRDNAKNTVYLQMNSLKPEDTAVYYCAADYTWRFLRFGYWGQGTQVTVSS | high polyreactivity
QVQLVESGGGLVQAGGSLRLSCAASGFTFTPNAMGWYRQAPGKERELVAAISGSGGSTYYADSVKGRFTISRDNAKNTVYLQMNSLKPEDTAVYYCAKRRGVYTHWYDYWGQGTQVTVSS | high polyreactivity
QVQLVESGGGLVQAGGSLRLSCAASGFTFTPYAMGWYRQAPGKERELVAAITWRGGTYYADSVKGRFTISRDNAKNTVYLQMNSLKPEDTAVYYCAARVWRLYPSTYDYWGQGTQVTVSS | high polyreactivity
QVQLVESGGGLVQAGGSLRLSCAASGFTFTPYAMGWYRQAPGKERELVATISWSGGSTYADSVKGRFTISRDNAKNTVYLQMNSLKPEDTAVYYCAADVYGVHAPQSDYWTKYDYWGQGTQVTVSS | low polyreactivity
QVQLVESGGGLVQAGGSLRLSCAASGFTFTQNAAMGWYRQAPGKERELVGAISSGGRTYFADSVKGRFTISRDNAKNTVYLQMNSLKPEDTAVYYCAAVYRRSDFRGAKDGYYYWGQGTQVTVSS | low polyreactivity
QVQLVESGGGLVQAGGSLRLSCAASGFTFTRNAMGWSRPAPGKERELVAAISKRGGTTYYADSVKGRFTISRDNAKNTVYLQMNSLKPEDTAVYYCAKDGGITGGYWGQGTQVSVSS | high polyreactivity
QVQLVESGGGLVQAGGSLRLSCAASGFTFTRYAMGWYRQAPGKERELVAAISSSGGSTYYADSVKGRFTISRDNAKNTVYLQMNSLKPEDTAVYYCNKNWPRLYYYWGQGTQVTVSS | high polyreactivity
QVQLVESGGGLVQAGGSLRLSCAASGFTFTRYAMGWYRQAPGKERELVAAITRSGSSTYYADSVKGRFTISRDNAKNTVYLQMNSLKQEDTAVYYCAARLHSPRYRYDYWGQGNQVTVSS | high polyreactivity
QVQLVESGGGLVQAGGSLRLSCAASGFTFTRYAMGWYRQAPGTERELVAAISRRGGSTYYADSVKGRFTISRDNAKNTVYLQMNSLKPEDTAVYYCAKDAGSRTVREFGYWGQGTQVTVSS | high polyreactivity
QVQLVESGGGLVQAGGSLRLSCAASGFTFTSNAMGWYRQAPGKERELVAAISRSGGRTYYADSVKGRFTISRDNAKNTVYLQLNSLKPEDTAVYYCNVRAEKRSYELYAYDYWGQGTQVTVSS | high polyreactivity
QVQLVESGGGLVQAGGSLRLSCAASGFTFTSYAMGWYIQAPGKERELVAAINRSGGSTTYADSVKGRFTISRDNAKNTVYLQMNSQKPEDTAVYYCAKAFRGHYWGQGTQVTVSS | high polyreactivity
QVQLVESGGGLVQAGGSLRLSCAASGFTFTTYAMGWYRQAPGKERELVARISRRSGSTYYADSVKGRFTISRDNAKNTVYLQMNSLKPEDTAVYYCNADVDRSTTIFDYWGQGTQVTVSS | high polyreactivity

Sequence | polyreactivity (PSR sort gate)
QVQLVESGGGLVQAGGSLRLSCAASGFTFTWYAMGLYRQAPGKERELVAAISSGGGRTYYADSVKGRFTISRDNAKNTVYLQMNRLKPEDTAVYYCNAVAGGVYVDNGYDYWGQGTQVTVSS | high polyreactivity
QVQLVESGGGLVQAGGSLRLSCAASGFTFTYNAMGWYRQAPGKERELVAGITLGSRTNYADSVKGRFTISRDNAKNTVYLQMNSLKPEDTAVYYCAVRYYGGYGYWGQGTQVTVSS | high polyreactivity
QVQLVESGGGLVQAGGSLRLSCAASGFTFTYYSMGWYRQAPGKERELVARINSCGNTNYADSVKGRFTISRDNAKNTVYLQMNSLKPEDTAVYSCARDACNRYDYWGQGTQVTVSS | low polyreactivity
QVQLVESGGGLVQAGGSLRLSCAASGFTFVAYAMGWYRQAPGKERELVAAISRRGGTTYYADSVKGRFTISRDNEKNTVYLQMNSLKPEDTAVYYCNARSNFAFYRGNWAYDYWGQGTQVTVSS | high polyreactivity
QVQLVESGGGLVQAGGSLRLSCAASGFTFVDYDMGWYRQAPGKERELVAAITYSGGSTSYADSVKGRFTISRDYAKNTVYLQMNSLKPEDTAVYYCNTEGFLSAVYAFGYWGQGTQVTVSS | low polyreactivity
QVQLVESGGGLVQAGGSLRLSCAASGFTFVDYMGWYRQAPGKERELVAAIDNSGGGTYYADSVKGRFTISRDNAKNTVYLQMNSLKPEDTAVYYRYAYTFYIYEDVLYVQGDYYWGQGTQVTVSS | low polyreactivity
QVQLVESGGGLVQAGGSLRLSCAASGFTFVGNAMGWYRQAPGKERELVATITSGGNTKYADSVKGRFTISRDNAKNTVYLQMNSLKPEDTAVYYCAAAKYNYRRFNYWGQGTQVTVSS | low polyreactivity
QVQLVESGGGLVQAGGSLRLSCAASGFTFVGYAMGWYRQAPGKERELVAAITRRGGSTYYADSVKGRFTISRDNAKNTVYLQMNSLKPEDTGVYDCNKASYRISVPRYDYWGQGTQVTVSS | high polyreactivity
QVQLVESGGGLVQAGGSLRLSCAASGFTFVINDMGWYRQAPGKERELVADITSGGDTYYADSVKGRFTISRDNAKNTVYLQMNSLTPEDTAVYYCAADIYPDWIYLLYGYWGHGTQVTVSS | low polyreactivity
QVQLVESGGGLVQAGGSLRLSCAASGFTFVNHAMGWYRQAPGKERELVAAISGGRTTNYADSVKGRFTISRDNAKNTVYLQMNSLKPEDTAVYYCAARRYFGLWYFWYDYWGQGTQVTVSS | high polyreactivity
QVQLVESGGGLVQAGGSLRLSCAASGFTFVNYVMGWYRQAPGKERELVAAISRSGGSTYYADSVKGRFTISRDNAKNTVYLQMNSLIPEDTAVYYCAARWFYRAGFNYWGQGTQVTVSS | high polyreactivity
QVQLVESGGGLVQAGGSLRLSCAASGFTFVPNTMGWYRQAPGKERELVARIRWRGGSTYYADSVKGRFTISRDNAKNTVYLQMNSLKPEDTAVYYCNAVRGYDARPYSEVYHGEKYYYWGQGTQVTVSS | low polyreactivity
QVQLVESGGGLVQAGGSLRLSCAASGFTFVPYAMGWYRPAPGKEREFVAAITSSGTTNYADSVKGRFTISRDNAKNTVYLQMNSLKPEDTAVYYCAADPDSGQVPFDYWGQGTQVTVSS | low polyreactivity
QVQLVESGGGLVQAGGSLRLSCAASGFTFVQYAMGWYRPAPGKERELVATITNGGGSTYYADSVKGRFTISRDNAKNTVYLQMNSLKPEDPAVYYCNADSGGRGAPTSTYDYWGQGTQVTLSS | low polyreactivity
QVQLVESGGGLVQAGGSLRLSCAASGFTFVRYAMGWYRQAPGKEREFVAAITWSGGGTYYADSVKGRFTISRDNAKNTVYLQMNSLKPEDTAVYYCAADRRAYGGGYWGQGTQVTVSS | high polyreactivity
QVQLVESGGGLVQAGGSLRLSCAASGFTFVRYAMGWYRQAPGKERELVAAISSSGGSTYYADSVKGRFTISRDNAKNTVYLQMNSLKPEDTAVYYCAARPYARYSRNIDGYEYWGQGTQVTVSS | high polyreactivity
QVQLVESGGGLVQAGGSLRLSCAASGFTFVRYAMGWYRQAPGKERELVAAISSSGSSTYYGDSVKGRFTISRDHEKNTVYLQMNSLKPEDTAVYYFNARAGRGEDYWGQGTQVTVSS | low polyreactivity
QVQLVESGGGLVQAGGSLRLSCAASGFTFVSYAMGGYRQAPGKERELVASISSGGSTYYADSVKGRFTISRDNAKNTVYLQMNSLKPEDTAVYYCAAYSRWGRWFTIYNYWGQGTQVTVSS | high polyreactivity
QVQLVESGGGLVQAGGSLRLSCAASGFTFVSYAMGWYRQAPGKEREFVATISKRGGSTYYADSVKGRFTNSRDNAKNTVYLQMNSLKPEDTAVYYCAAARNVYRGRVYWGRYDYWGQGTQVTVSS | high polyreactivity
QVQLVESGGGLVQAGGSLRLSCAASGFTFVYYAMGWYRPAPGKERDLVATISGNGGRTYYADSVKGRFTISRDNAKNTVYLQMNSLKPEDTAVYYCATDVGFGRKQRPHRPGYGYWGQGTQVTVSS | low polyreactivity
